According to patent US20160136234A1:

Columns and labels:
Assay in all cases: cell-based or functional assay
CaMKIIδ (h) (human) = CaMKIIδ (h) (human) (UniProt Q13557)
CHK2 (h) (human) = CHK2 (h) (human) (UniProt O96017)
eEF-2K (h) (human) = target: T1, eEF-2K (h) (human) (UniProt O00418)
T1 sequence (looked up): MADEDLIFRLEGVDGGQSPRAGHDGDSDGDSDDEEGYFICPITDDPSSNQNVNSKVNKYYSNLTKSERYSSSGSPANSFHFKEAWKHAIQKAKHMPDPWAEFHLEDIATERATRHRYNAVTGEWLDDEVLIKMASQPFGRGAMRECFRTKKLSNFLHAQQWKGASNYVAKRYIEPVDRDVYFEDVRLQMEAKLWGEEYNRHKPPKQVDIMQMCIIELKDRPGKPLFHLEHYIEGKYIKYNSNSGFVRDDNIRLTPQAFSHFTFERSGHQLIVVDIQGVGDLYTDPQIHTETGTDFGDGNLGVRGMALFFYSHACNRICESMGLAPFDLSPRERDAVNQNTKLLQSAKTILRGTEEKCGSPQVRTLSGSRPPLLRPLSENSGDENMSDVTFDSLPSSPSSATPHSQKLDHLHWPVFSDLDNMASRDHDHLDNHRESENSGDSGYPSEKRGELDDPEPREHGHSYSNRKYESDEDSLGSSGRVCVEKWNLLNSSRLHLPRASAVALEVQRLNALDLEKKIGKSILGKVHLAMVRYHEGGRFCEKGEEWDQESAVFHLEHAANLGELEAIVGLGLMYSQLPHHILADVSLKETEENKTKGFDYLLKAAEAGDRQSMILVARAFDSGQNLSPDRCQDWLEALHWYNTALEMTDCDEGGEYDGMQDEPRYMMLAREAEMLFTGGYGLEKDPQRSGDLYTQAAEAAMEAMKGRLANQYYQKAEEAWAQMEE

Flt3 (h) (human) = target: T2, Flt3 (h) (human) (UniProt P36888)
T2 sequence (looked up): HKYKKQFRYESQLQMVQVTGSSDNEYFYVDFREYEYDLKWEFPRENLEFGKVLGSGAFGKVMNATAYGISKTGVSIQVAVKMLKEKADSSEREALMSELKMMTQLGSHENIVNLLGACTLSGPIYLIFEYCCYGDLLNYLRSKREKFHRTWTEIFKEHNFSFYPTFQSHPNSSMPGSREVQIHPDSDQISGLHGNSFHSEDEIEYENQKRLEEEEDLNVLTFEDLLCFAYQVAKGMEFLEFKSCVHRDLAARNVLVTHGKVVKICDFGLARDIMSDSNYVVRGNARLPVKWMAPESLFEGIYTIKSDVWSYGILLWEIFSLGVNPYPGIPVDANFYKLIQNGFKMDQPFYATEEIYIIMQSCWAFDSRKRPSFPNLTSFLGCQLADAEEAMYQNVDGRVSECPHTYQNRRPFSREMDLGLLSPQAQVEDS

CHK2(I157T) (h) (human) = CHK2(I157T) (h) (human) (UniProt O96017)
Sequence of CHK2(I157T) (h) (human) (O96017 5-543 I157T limits assumed): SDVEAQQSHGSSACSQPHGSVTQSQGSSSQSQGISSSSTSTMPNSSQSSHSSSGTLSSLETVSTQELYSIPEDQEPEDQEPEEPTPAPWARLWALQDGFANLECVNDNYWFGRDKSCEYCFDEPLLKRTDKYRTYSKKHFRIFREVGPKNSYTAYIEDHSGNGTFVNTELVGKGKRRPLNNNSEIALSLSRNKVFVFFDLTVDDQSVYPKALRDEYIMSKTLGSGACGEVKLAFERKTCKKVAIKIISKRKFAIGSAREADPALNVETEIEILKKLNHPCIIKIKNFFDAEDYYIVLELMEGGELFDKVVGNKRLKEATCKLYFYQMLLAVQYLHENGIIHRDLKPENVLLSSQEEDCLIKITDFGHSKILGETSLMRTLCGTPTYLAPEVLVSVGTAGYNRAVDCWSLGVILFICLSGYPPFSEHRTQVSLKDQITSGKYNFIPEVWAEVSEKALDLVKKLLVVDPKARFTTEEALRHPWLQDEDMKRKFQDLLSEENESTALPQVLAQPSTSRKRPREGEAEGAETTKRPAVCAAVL

[1] = target: Mitogen-Activated Protein Kinase-Activated Protein Kinase 2 (human) (UniProt P49137)
Yes (h) (human) = Yes (h) (human) (UniProt P07947)
TAO2 (h) (human) = target: T3, TAO2 (h) (human) (UniProt Q9UL54)
T3 sequence (looked up): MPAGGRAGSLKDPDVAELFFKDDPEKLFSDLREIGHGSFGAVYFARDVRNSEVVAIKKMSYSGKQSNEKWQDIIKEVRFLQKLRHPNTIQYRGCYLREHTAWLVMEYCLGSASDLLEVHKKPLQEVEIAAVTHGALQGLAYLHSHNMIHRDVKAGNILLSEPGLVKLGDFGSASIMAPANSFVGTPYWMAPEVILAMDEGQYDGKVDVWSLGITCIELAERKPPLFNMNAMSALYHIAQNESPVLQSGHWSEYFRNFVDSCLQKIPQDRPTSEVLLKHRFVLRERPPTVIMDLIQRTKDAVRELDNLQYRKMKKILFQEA

Ron (h) (human) = Ron (h) (human) (UniProt Q04912)
Sequence of Ron (h) (human) (Q04912 983-1400 limits assumed): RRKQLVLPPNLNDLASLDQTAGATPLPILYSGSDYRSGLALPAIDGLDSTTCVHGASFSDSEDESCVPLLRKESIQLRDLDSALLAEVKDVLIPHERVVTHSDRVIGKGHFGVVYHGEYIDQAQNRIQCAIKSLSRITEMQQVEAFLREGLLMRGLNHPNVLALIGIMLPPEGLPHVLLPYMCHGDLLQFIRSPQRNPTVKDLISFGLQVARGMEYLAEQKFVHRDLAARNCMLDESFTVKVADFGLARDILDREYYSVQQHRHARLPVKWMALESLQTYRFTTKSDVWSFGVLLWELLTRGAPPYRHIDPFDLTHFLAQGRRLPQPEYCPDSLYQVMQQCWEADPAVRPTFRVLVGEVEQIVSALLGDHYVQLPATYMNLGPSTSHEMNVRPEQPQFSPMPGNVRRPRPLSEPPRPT

PKCµ (h) (human) = target: T4, PKCµ (h) (human) (UniProt Q15139)
T4 sequence (looked up): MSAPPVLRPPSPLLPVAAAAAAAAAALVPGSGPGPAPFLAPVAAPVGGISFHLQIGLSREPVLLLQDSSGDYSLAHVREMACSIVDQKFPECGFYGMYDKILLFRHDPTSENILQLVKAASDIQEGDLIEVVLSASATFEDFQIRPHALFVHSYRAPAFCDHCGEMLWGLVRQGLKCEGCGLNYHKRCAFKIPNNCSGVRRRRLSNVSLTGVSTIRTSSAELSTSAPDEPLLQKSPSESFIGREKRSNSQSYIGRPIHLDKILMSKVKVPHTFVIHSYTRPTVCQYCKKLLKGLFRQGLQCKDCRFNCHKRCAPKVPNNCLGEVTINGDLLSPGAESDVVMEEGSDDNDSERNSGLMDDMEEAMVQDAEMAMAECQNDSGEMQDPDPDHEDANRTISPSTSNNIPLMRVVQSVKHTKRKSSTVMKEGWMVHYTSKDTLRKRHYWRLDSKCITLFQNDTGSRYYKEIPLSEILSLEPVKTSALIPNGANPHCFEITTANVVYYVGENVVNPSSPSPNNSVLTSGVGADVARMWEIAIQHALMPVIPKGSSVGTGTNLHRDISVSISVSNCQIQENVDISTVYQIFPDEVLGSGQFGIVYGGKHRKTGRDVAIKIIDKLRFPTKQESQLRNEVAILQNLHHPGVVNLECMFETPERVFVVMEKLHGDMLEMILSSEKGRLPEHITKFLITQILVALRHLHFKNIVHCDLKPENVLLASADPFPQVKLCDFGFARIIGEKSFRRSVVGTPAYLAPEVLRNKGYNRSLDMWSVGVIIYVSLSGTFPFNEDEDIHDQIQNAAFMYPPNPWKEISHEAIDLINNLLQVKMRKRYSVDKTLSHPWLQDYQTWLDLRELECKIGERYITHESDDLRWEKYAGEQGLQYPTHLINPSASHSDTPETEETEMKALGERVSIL

Pim-2 (h) (human) = Pim-2 (h) (human) (UniProt Q9P1W9)
SGK (h) (human) = SGK (h) (human) (UniProt O00141)
Sequence of SGK (h) (human) (O00141 60-431 limits assumed): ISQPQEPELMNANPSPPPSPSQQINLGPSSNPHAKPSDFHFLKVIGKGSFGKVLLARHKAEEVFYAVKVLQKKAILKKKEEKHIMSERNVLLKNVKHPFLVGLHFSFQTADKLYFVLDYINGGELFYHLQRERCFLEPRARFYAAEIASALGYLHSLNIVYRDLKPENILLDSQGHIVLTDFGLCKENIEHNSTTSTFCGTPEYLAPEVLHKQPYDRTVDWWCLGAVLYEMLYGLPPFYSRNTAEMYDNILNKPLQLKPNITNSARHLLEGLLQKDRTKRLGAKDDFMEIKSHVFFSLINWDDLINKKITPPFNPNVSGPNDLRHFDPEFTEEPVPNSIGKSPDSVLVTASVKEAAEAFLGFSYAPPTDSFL

PRAK (h) (human) = PRAK (h) (human) (UniProt Q8IW41)
Sequence of PRAK (h) (human) (Q8IW41 whole entry): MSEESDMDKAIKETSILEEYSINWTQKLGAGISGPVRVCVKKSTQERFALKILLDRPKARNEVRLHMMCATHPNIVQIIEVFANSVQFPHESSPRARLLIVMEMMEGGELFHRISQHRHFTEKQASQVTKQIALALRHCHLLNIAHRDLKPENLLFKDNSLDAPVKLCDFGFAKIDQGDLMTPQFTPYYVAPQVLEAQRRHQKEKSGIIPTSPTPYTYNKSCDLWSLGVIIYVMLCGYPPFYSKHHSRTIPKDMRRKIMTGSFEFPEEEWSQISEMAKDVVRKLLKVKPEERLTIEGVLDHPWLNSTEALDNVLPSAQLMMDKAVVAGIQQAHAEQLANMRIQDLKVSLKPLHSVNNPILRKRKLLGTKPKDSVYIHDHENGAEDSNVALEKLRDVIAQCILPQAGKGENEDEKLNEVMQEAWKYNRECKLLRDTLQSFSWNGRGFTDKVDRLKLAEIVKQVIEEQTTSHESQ

Rsk4 (h) (human) = Rsk4 (h) (human) (UniProt Q9UK32)
Sequence of Rsk4 (h) (human) (Q9UK32 whole entry): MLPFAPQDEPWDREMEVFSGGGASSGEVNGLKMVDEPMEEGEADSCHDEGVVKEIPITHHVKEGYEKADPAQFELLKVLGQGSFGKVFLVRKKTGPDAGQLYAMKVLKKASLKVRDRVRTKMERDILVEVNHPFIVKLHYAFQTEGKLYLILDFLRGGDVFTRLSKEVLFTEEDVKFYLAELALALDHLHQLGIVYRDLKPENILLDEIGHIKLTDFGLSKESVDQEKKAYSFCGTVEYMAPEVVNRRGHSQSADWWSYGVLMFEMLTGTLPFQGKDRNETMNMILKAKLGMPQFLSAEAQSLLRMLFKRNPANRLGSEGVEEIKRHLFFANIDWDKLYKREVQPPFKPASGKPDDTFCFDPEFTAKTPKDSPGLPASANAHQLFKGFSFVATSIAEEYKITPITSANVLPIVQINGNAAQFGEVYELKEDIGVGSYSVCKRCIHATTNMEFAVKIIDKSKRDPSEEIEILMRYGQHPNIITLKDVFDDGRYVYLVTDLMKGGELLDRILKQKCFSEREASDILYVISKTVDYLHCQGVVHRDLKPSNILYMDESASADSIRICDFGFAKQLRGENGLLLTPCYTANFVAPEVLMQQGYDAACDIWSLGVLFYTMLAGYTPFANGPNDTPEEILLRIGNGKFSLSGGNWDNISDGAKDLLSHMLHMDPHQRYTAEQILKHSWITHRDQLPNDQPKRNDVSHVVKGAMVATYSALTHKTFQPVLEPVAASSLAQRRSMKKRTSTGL

SAPK2b (h) (human) = SAPK2b (h) (human) (UniProt Q15759)
Sequence of SAPK2b (h) (human) (Q15759 whole entry): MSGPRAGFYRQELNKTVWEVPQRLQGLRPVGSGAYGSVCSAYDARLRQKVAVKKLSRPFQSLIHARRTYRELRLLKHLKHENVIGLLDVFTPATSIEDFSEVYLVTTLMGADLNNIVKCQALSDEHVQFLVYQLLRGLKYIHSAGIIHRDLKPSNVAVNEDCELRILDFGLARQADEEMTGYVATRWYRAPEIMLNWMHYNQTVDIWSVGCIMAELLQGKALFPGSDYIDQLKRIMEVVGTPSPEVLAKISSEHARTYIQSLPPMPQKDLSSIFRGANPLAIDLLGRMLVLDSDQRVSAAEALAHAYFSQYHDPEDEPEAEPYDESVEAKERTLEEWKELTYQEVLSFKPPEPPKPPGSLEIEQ

Sequence of CHK2 (h) (human) (O96017 5-543 limits assumed): as the sequence (O96017 5-543 I157T limits assumed) above, with T153I counted along it

MMI-0300 (peptide) gave a % activity at 100 µM (CaMKIIδ (h) (human)) of 1%, a % activity at 100 µM (CHK2 (h) (human)) of 66% and a % activity at 100 µM (eEF-2K (h) (human)) of 91%. For the same substance, the % activity at 100 µM (Flt3 (h) (human)) was 84%, the % activity at 100 µM (CHK2(I157T) (h) (human)) was 43% and the % activity at 100 µM [1] was 5%. The % activity at 100 µM (Yes (h) (human)) was 67%, the % activity at 100 µM (TAO2 (h) (human)) was 70% and the % activity at 100 µM (Ron (h) (human)) was 93%. It also gave a % activity at 100 µM (PKCµ (h) (human)) of 22%, a % activity at 100 µM (Pim-2 (h) (human)) of 76% and a % activity at 100 µM (SGK (h) (human)) of 48%. For the same substance, the % activity at 100 µM (PRAK (h) (human)) was 128%, the % activity at 100 µM (Rsk4 (h) (human)) was 90% and the % activity at 100 µM (SAPK2b (h) (human)) was 81%.
